From patent publication US10966923

Assays:
[1] = target: VEGF (UniProt P15692); experiment: VEGF incubated with particles, particulate spun out, free VEGF in the supernatant measured by ELISA
[2] = target: Abraxane (albumin-bound paclitaxel) (UniProt P02768); experiment: flow cytometry of particles stained with goat anti-mouse IgG and PE; ABX alone as comparison
[3] = target: AB160 (nanoparticle of albumin-bound paclitaxel and bevacizumab, ratio about 10:4, average particle size 160 nm) (UniProt P02768); experiment: flow cytometry of particles stained with goat anti-mouse IgG and PE
[4] = target: T1, Abraxane (albumin-bound paclitaxel) (UniProt P02768 25-609); experiment: VEGF incubated with particles, particulate spun out, free VEGF in the supernatant measured by ELISA
T1 construct: also called ABX; Paclitaxel Albumin-stabilized Nanoparticle Formulation
Protocol: The VEGF was incubated with the nanoparticles for 2 hours at room temperature. The suspension was spun at 6000 rpm for 15 minutes, supernatants were collected and free VEGF was measured by ELISA. Briefly, ELISA plates were coated with capture antibody overnight at 4° C. Plates were washed, blocked and standards and samples were added. After washing, detection antibody was added and plates were developed with substrate (R and D Systems, Minneapolis, Minn.). […] The concentration of unbound VEGF was determined with a standard curve from 0 to 2000 pg/ml.

In the case of “AB160 (nanoparticle of albumin-bound paclitaxel and bevacizumab, ratio about 10:4, average particle size 160 nm) (from UniProt P02768 25-609)”, the % VEGF unbound [1] is reported as less than 10%.

Work on goat anti-mouse IgG (antibody) yielded a % positive [2] of 6.7% and a % positive [3] of 41.2%.

B1: VEGF (ligand, UniProt P15692-4 27-191, looked up)
chain: APMAEGGGQNHHEVVKFMDVYQRSYCHPIETLVDIFQEYPDEIEYIFKPSCVPLMRCGGCCNDEGLECVPTEESNITMQIMRIKPHQGQHIGEMSFLQHNKCECRPKKDRARQENPCGPCSERRKHLFVQDPQTCKCSCKNTDSRCKARQLELNERTCRCDKPRR
notes: Soluble VEGF
B1: no binding (tested: 2000 pg/ml VEGF) [4].
